Measurements reported in patent EP1433851A2.

Target: FITC-labeled CD4 (UniProt P01730)
Assay: size exclusion HPLC (Biosil 250); CD4-FITC alone eluted at 2.67 minutes

Row | Substance | retention time of the complex [min]
1 | US4 gp120, purified from CHO cell culture supernatant | 2.17
2 | oligomeric gp140 US4 (o-gp140 US4), purified from CHO cell culture supernatant | 1.9
